Data published in the supplement of paper PMC10567573.
± gives the standard deviation.

Assay: protein stability index of a GFP-peptide fusion (GPS, HEK-293T) (PSI 1-6); higher = more stable
[1] = treatment: DMSO, c terminus: a fixed tail appended
[2] = treatment: MLN4924 1 uM, 8 h, c terminus: a fixed tail appended
[3] = treatment: DMSO, c terminus: native
[4] = treatment: MLN4924 1 uM, 8 h, c terminus: native
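Note: 24-mer peptide tiles fused after GFP, lentivirally expressed, FACS-sorted into six equal bins by GFP/DsRed ratio, decoded by Illumina sequencing, PSI is the read-weighted mean bin number.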

| Sequence | protein stability index [1] | protein stability index [2] | protein stability index [3] | protein stability index [4] |
| --- | --- | --- | --- | --- |
| HKLVSASTDNIVSQWDVLSGDCDQ [RBBP5] | 4.73 ± 0.18 | 4.68 ± 0.11 |  |  |
| DLKPTGEIPKQVKVKKLKNLKTLD [DENND6A] | 4.24 ± 0.25 | 4.24 ± 0.31 |  |  |
| KSFSMANGLNARMMHGGSYSLTTS [RAB40B] | 3.1 ± 0.2 | 3.18 ± 0.2 |  |  |
| YSLMKRQMMSATAQNREPESVEQL [SNX8] | 4.37 ± 0.38 | 4.48 ± 0.19 |  |  |
| AVTLRCGHNFCRGCVSRCWEVQVS [TRIM35] | 2.62 ± 0.12 | 2.33 ± 0.43 |  |  |
| LKQAKELDRERAAANEQLTRAILR [CHCHD3] | 3.56 ± 0.11 | 3.81 ± 0.2 |  |  |
| NHQKDLFRRTDGRCLIWGRKPKVI [DHCR7] | 2.66 ± 0.27 | 2.74 ± 0.3 |  |  |
| APGIGPPEPWPGGCTGDEAESRGH [MYCL] | 4.97 ± 0.55 | 5.51 ± 0.23 |  |  |
| ASMAPAAALPPVPSPPAAPSVADN [SERTAD1] | 5.3 ± 0.13 | 5.31 ± 0.42 |  |  |
| ITVKNLRMAIGYLHSHRHLYPEGI [POMT2] | 3.02 ± 0.38 | 2.88 ± 0.58 |  |  |
| LRQAQQNMDPKAAEEEEEEEEEVD [CCND1] | 5.64 ± 0.35 | 5.56 ± 0.33 |  |  |
| AQKESLQNQHHSASLQASIFSGAA [APBB1IP] | 4.03 ± 0.22 | 3.98 ± 0.26 |  |  |
| VEECQAALQNKDTYEPFCKVPVIT [KCTD10] | 4.06 ± 0.15 | 4.12 ± 0.3 |  |  |
| MAFFLCLGLALGAVFSFLFRAIV [SLC29A1] |  |  | 4.33 ± 0.19 | 4.14 ± 0.24 |
| KEQHLWDVDLLDSKVIEILDSQTE [DLC1] | 4.79 ± 0.26 | 4.5 ± 0.18 |  |  |
| QDSFEAAGNSTSGSRAGASSFSDP [KCNA3] | 5.42 ± 0.31 | 5.35 ± 0.16 |  |  |
| RCGVPDVAQFVLTEGNPRWEQTHL [MMP1] | 2.42 ± 0.4 | 2.3 ± 0.24 |  |  |
| RSTCVYVCALSALPAGPLPAPLLV [PLEKHN1] | 3.18 ± 1.1 | 2.88 ± 0.71 |  |  |
| EAEREFILNLKKKECKDRGFEYDG [NLN] | 4.58 ± 0.41 | 4.91 ± 0.32 |  |  |
| EILEQQQQERNDTNFHGVCMFCNE [ZNF277] | 3.73 ± 0.37 | 3.77 ± 0.43 |  |  |
| EEEEAEDEEVVATAGDRLTEFRKG [IRX6] | 5.48 ± 0.34 | 5.6 ± 0.28 |  |  |
| TVKMLRTQRPAMVQTEDQYQFSYR [PTPRD] | 2.84 ± 0.37 | 2.97 ± 0.33 |  |  |
| YVLKYMESNAAQYSPEALASIQNH [EFHC1] | 2.31 ± 0.14 | 2.35 ± 0.24 |  |  |

| Sequence | protein stability index [1] | protein stability index [2] | protein stability index [3] | protein stability index [4] |
| --- | --- | --- | --- | --- |
| SPWDQEERPAQRDCSFPGLPRHQD [TRAF3IP2] | 5.48 ± 0.23 | 5.36 ± 0.38 |  |  |
| CVLVPRADLRLGGQPAPPQLLLGR [SMAD6] | 2.5 ± 0.5 | 2.65 ± 0.099 |  |  |
| HVFIGDHSGQVTILKLEQENCTLV [WDFY2] | 2.09 ± 0.39 | 2.19 ± 0.19 |  |  |
| GGGEGHQPAGNRRGQARRLAPNFR [BEX3] | 4.93 ± 0.17 | 4.92 ± 0.26 |  |  |
| PLSLYGQLLWREFFYTAATNNPRF [CRY1] | 2.79 ± 0.46 | 2.5 ± 0.72 |  |  |
| HSQFIGYPITLYLEKEREKEISDD [HSP90AB1] | 3.82 ± 0.082 | 3.9 ± 0.26 |  |  |
| EKVKKRPGGRPEVIYNYVQRPFIR [BTBD10] | 2.9 ± 0.31 | 2.73 ± 0.63 |  |  |
| PQPNYADTLISQESCEKNDPLSLL [PCDHGA10] | 4.83 ± 0.11 | 4.85 ± 0.17 |  |  |
| PAEESKPAPSPHEEPCSPGLLQDQ [CBY2] | 5.33 ± 0.27 | 5.14 ± 0.31 |  |  |
| TARMEMLIEELYAFMPARSQDPKK [CBY2] | 2.66 ± 0.39 | 2.94 ± 0.27 |  |  |
| THRLKDGSTMLIEAAKGGHTSVVC [ANKRD17] | 2.51 ± 0.33 | 2.56 ± 0.33 |  |  |
| RAALISRRHLQFWKSHLKKVQKPL [RHOBTB1] | 2.22 ± 0.16 | 2.54 ± 0.34 |  |  |
| VIKDKDDSVDAQNICHVWHMNVEA [RNF180] | 3.98 ± 0.047 | 3.66 ± 0.17 |  |  |
| LFCAPGSWEWNELDHIMEIILGS [SERTAD3] |  |  | 3.56 ± 0.17 | 2.45 ± 0.4 |
| MSHHQEELVPKQPQKRKPQEQLLE [SLC2A12] | 5.25 ± 0.14 | 5.34 ± 0.15 |  |  |
| NQYATCRLCGRQVSRGPGVNVGTT [ZBED2] | 2.39 ± 0.27 | 2.58 ± 0.46 |  |  |
| LPVNSPMNKGDTEVMKCIVEVISD [CHGA] | 3.22 ± 0.2 | 3.27 ± 0.19 |  |  |
| RSLQDLARIAIRGTIKKIIHQETV [PCMTD2] | 2.39 ± 0.32 | 2.52 ± 0.65 |  |  |
| LSINRYERKKNLTLALEALVQLRG [ALG2] | 2.25 ± 0.36 | 2.09 ± 0.2 |  |  |
| KRAESDSRKSSIPNNKEIPSHHPT [PTPRD] | 5.151 ± 0.046 | 5.08 ± 0.078 |  |  |
| HAYIHSVQFSHHVFLNLHTLKFYC [USP39] | 3.33 ± 0.42 | 3.04 ± 0.56 |  |  |
| GMEGLLGTLVQLLGSDDINVVTCA [CTNNB1] | 2.34 ± 0.55 | 2.46 ± 0.15 |  |  |
| VLNEEGICTQKCALNWTDIPVAME [VPS39] | 3.43 ± 0.18 | 3.39 ± 0.28 |  |  |

| Sequence | protein stability index [1] | protein stability index [2] | protein stability index [3] | protein stability index [4] |
| --- | --- | --- | --- | --- |
| GYLVTKVVAVDRDSGQNAWLSYRL [PCDHGA10] | 2.6 ± 0.56 | 2.58 ± 0.69 |  |  |
| VGQSLRIKEQEVCKLQEQLEATVK [SASS6] | 4.15 ± 0.44 | 4.26 ± 0.19 |  |  |
| SPNRSLPSPGVLCGSARPKPYDPP [ATF4] | 3.67 ± 0.19 | 3.72 ± 0.26 |  |  |
| DKVGLITLSDWAAAVESVLHLGLP [PPEF2] | 2.5 ± 0.25 | 2.31 ± 0.64 |  |  |
| HGRIPDPDDFVPPVPPPSYFATFY [FAM189A2] | 2.24 ± 0.25 | 2.23 ± 0.34 |  |  |
| GRGLLRWDSFSAWLHCVCVVGFDL [DENND6A] | 2.77 ± 0.58 | 2.83 ± 0.69 |  |  |
| RMDFAAKLMKNIRFPLMTPQELIN [KLHL13] | 2.01 ± 0.31 | 1.94 ± 0.27 |  |  |
| TEDGKLDIWSKSNYQVFQKVTDHA [MED27] | 3.67 ± 0.27 | 3.77 ± 0.42 |  |  |
| ASHSLSPSEHVQGKSPVNMVTVAM [ZNF649] | 3.3 ± 0.29 | 3.21 ± 0.35 |  |  |
| RTSRKFLACRLTPDMETKLLFMTS [INTS3] | 2.49 ± 0.37 | 2.33 ± 0.39 |  |  |
| FYSAEIICAIEYLHSKEIVYRDLK [PRKX] | 2.96 ± 0.76 | 2.51 ± 0.45 |  |  |
| TSPALLQGTAEEDHVDLSLSCTLV [CDKN1A] | 3.85 ± 0.13 | 3.85 ± 0.18 |  |  |
| GLSQVLLRGGGQVLLGWTLHYFPF [POMT2] | 2.95 ± 0.26 | 2.97 ± 0.64 |  |  |
| DCEMNSPQVPPSQPLRPWAGGDVP [DYRK1B] | 4.32 ± 0.13 | 4.62 ± 0.15 |  |  |
| IEQFSESHAIHVEEQSDQSFSSLE [IQUB] | 5.1 ± 0.095 | 5.14 ± 0.17 |  |  |
| FSVVRRCMKIPTGQEYAAKIINTK [CAMK2D] | 2.3 ± 0.1 | 2.31 ± 0.36 |  |  |
| EAGFHTVEAVAYAPKKELINIKGI [RAD51] | 3.01 ± 0.054 | 3.19 ± 0.29 |  |  |
| RDDLDRLGVFLDYEAGVLAFYDVT [TRIM14] | 2.55 ± 0.31 | 2.06 ± 0.53 |  |  |
| FRVLCTAPAKYTVFDAEGYVKPQS [MOSPD3] | 2.02 ± 0.35 | 2.19 ± 0.53 |  |  |
| SLPASSYSQDPVYANGGLNYSYRG [NOL4L] | 3.44 ± 0.12 | 3.62 ± 0.15 |  |  |
| GPTGVTMTSNPITWGQIKKTTQEA [CDK11A] | 4.55 ± 0.21 | 4.51 ± 0.4 |  |  |
| ELPNGSVKEAPAPTPTSLEVSSPP [PDZK1] | 5.04 ± 0.12 | 5.09 ± 0.17 |  |  |
| LLSFKRGSALEEKENKILVKETGY [TNFSF13B] | 3.45 ± 0.38 | 3.31 ± 0.37 |  |  |

| Sequence | protein stability index [1] | protein stability index [2] | protein stability index [3] | protein stability index [4] |
| --- | --- | --- | --- | --- |
| FLSDVTAAVKENQMTPTNLAVCLA [DLC1] | 2.72 ± 0.23 | 2.92 ± 0.29 |  |  |
| QPQALLVDGDQSKILISGLEPSTP [TNXB] | 4.73 ± 0.31 | 4.69 ± 0.23 |  |  |
| RQHHHQSSFPGSLPQETNLTLKVC | 2.89 ± 0.48 | 3.34 ± 0.56 |  |  |
| RRFIQSCPIIRIPNRFLRGHRPPP [KLHDC10] | 2.67 ± 0.18 | 2.73 ± 0.43 |  |  |
| ALARDLLSETADPFFVLNSDVICD [GMPPB] | 3.07 ± 0.069 | 3.32 ± 0.26 |  |  |
| SSCYPLIPSTPEEVSADDETPNPP [MAGEA10] | 5.46 ± 0.31 | 5.44 ± 0.27 |  |  |
| PARDYSQYYRTIEELQNKILTATV [KRT17] | 2.28 ± 0.2 | 2.34 ± 0.21 |  |  |
| LRKSIFSESRKPTVSIMEPGETRR [TRIM29] | 3.66 ± 0.32 | 3.93 ± 0.58 |  |  |
| RQRLLADLLHNVSQNIAAETRAED [DFFB] | 4.1 ± 0.36 | 4.09 ± 0.44 |  |  |
| MIQTSKTEITELRRTLQGLEIELQ [KRT13] | 3.02 ± 0.28 | 3.07 ± 0.24 |  |  |
| ELLDLKAGGFSIRNQKGEQVFRLA [MYORG] | 2.32 ± 0.33 | 2.24 ± 0.48 |  |  |
| SGSGSGPGCGSVPGSGSGPGPGSG [SPAG8] | 5.08 ± 0.24 | 5.12 ± 0.12 |  |  |
| EAAEAETAKDNGEAEDQEEKEDAE [SRPK2] | 5.55 ± 0.4 | 5.73 ± 0.29 |  |  |
| VERALQLPREPGDSAQFTKALAII [FEM1A] | 3.1 ± 0.051 | 2.8 ± 0.31 |  |  |
| EPLRILSKYHRFISFTLYLIGFCM [CDS2] | 1.95 ± 0.32 | 1.96 ± 0.16 |  |  |
| KVYTHPKWNTQTKARSYSYPHCTG [ZC2HC1C] | 2.73 ± 0.36 | 2.9 ± 0.39 |  |  |
| RLKTRSWAGERSRRELCSRLQDQ [CDC25B] |  |  | 4.02 ± 0.17 | 4.13 ± 0.15 |
| LLTHRCLRDEHRCASKYGRDWERY [DHCR7] | 2.26 ± 0.27 | 2.38 ± 0.11 |  |  |
| RSLANGPNAGEQPGQVAGADFESE [EID1] | 5.22 ± 0.24 | 5.74 ± 0.18 |  |  |
| AWKHGNIHLSAPCIYSEVMEALKL [PCMTD1] | 2.28 ± 0.34 | 2.14 ± 0.33 |  |  |
